Measured values: patent US20150344570A1 (published 2015)

B1: GpH7-A5/GpH7-B3 variant E333_09D/GpL16-k0 (antibody, human IgG1, kappa)
heavy 1: not shown
heavy 2: not shown
light: DIVMTQSPLSLPVTPGEPASISCQASESLVHSNRNTYLHWYLQKPGQSPQLLIYKVSNRFSGVPDRFSGSGSGTDFTLKISRVEAEDVGVYYCSQNTHVPPTFGQGTKVEIERTVAAPSVFIFPPSDEQLKSGTASVVCLLNNFYPREAKVQWKVDNALQSGNSQESVTEQDSKDSTYSLSSTLTLSKADYEKHKVYACEVTHQGLSSPVTKSFNRGEC
notes: also called He Ab E333_09D
B2: GpH7-A5/GpH7-B3 variant I332_12R/GpL16-k0 (antibody, human IgG1, kappa)
heavy 1: not shown
heavy 2: not shown
light: B1 light
notes: also called He Ab I332_12R
B3: GpH7-A5/GpH7-B3 variant I336_10E/GpL16-k0 (antibody, human IgG1, kappa)
heavy 1: not shown
heavy 2: not shown
light: B1 light
notes: also called He Ab I336_10E
B4: GpH7-A5/GpH7-B3 variant H268_14T/GpL16-k0 (antibody, human IgG1, kappa)
heavy 1: not shown
heavy 2: not shown
light: B1 light
notes: also called He Ab H268_14T
B5: GpH7-A5/GpH7-B3 variant H268_05P/GpL16-k0 (antibody, human IgG1, kappa)
heavy 1: not shown
heavy 2: not shown
light: B1 light
notes: also called He Ab H268_05P
B6: GpH7-A5/GpH7-B3 variant E269_20W/GpL16-k0 (antibody, human IgG1, kappa)
heavy 1: not shown
heavy 2: not shown
light: B1 light
notes: also called He Ab E269_20W
B7: GpH7-A5/GpH7-B3 variant A330_09D/GpL16-k0 (antibody, human IgG1, kappa)
heavy 1: not shown
heavy 2: not shown
light: B1 light
notes: also called He Ab A330_09D
B8: GpH7-A5/GpH7-B3 variant E269_09D/GpL16-k0 (antibody, human IgG1, kappa)
heavy 1: not shown
heavy 2: not shown
light: B1 light
notes: also called He Ab E269_09D
B9: GpH7-A5/GpH7-B3 variant E269_03V/GpL16-k0 (antibody, human IgG1, kappa)
heavy 1: not shown
heavy 2: not shown
light: B1 light
notes: also called He Ab E269_03V
B10: GpH7-A5/GpH7-B3 variant I336_03V/GpL16-k0 (antibody, human IgG1, kappa)
heavy 1: not shown
heavy 2: not shown
light: B1 light
notes: also called He Ab I336_03V
B11: GpH7-A5/GpH7-B3 variant A330_16H/GpL16-k0 (antibody, human IgG1, kappa)
heavy 1: not shown
heavy 2: not shown
light: B1 light
notes: also called He Ab A330_16H
B12: GpH7-A5/GpH7-B3 variant I336_02A/GpL16-k0 (antibody, human IgG1, kappa)
heavy 1: not shown
heavy 2: not shown
light: B1 light
notes: also called He Ab I336_02A
B13: GpH7-A5/GpH7-B3 variant K326_12R/GpL16-k0 (antibody, human IgG1, kappa)
heavy 1: not shown
heavy 2: not shown
light: B1 light
notes: also called He Ab K326_12R
B14: GpH7-A5/GpH7-B3 variant I336_04F/GpL16-k0 (antibody, human IgG1, kappa)
heavy 1: not shown
heavy 2: not shown
light: B1 light
notes: also called He Ab I336_04F
B15: GpH7-A5/GpH7-B3 variant K326_14T/GpL16-k0 (antibody, human IgG1, kappa)
heavy 1: not shown
heavy 2: not shown
light: B1 light
notes: also called He Ab K326_14T
B16: GpH7-A5/GpH7-B3 variant H268_08L/GpL16-k0 (antibody, human IgG1, kappa)
heavy 1: not shown
heavy 2: not shown
light: B1 light
notes: also called He Ab H268_08L
B17: GpH7-A5/GpH7-B3 variant E333_16H/GpL16-k0 (antibody, human IgG1, kappa)
heavy 1: not shown
heavy 2: not shown
light: B1 light
notes: also called He Ab E333_16H
B18: GpH7-A5/GpH7-B3 variant E269_07I/GpL16-k0 (antibody, human IgG1, kappa)
heavy 1: not shown
heavy 2: not shown
light: B1 light
notes: also called He Ab E269_07I
B19: GpH7-A5/GpH7-B3 variant E333_11K/GpL16-k0 (antibody, human IgG1, kappa)
heavy 1: not shown
heavy 2: not shown
light: B1 light
notes: also called He Ab E333_11K
B20: GpH7-A5/GpH7-B3 variant E333_15Y/GpL16-k0 (antibody, human IgG1, kappa)
heavy 1: not shown
heavy 2: not shown
light: B1 light
notes: also called He Ab E333_15Y
B21: GpH7-A5/GpH7-B3 variant E269_15Y/GpL16-k0 (antibody, human IgG1, kappa)
heavy 1: not shown
heavy 2: not shown
light: B1 light
notes: also called He Ab E269_15Y
B22: GpH7-A5/GpH7-B3 variant H268_02A/GpL16-k0 (antibody, human IgG1, kappa)
heavy 1: not shown
heavy 2: not shown
light: B1 light
notes: also called He Ab H268_02A
B23: GpH7-A5/GpH7-B3 variant H268_07I/GpL16-k0 (antibody, human IgG1, kappa)
heavy 1: not shown
heavy 2: not shown
light: B1 light
notes: also called He Ab H268_07I
B24: GpH7-A5/GpH7-B3 variant K326_15Y/GpL16-k0 (antibody, human IgG1, kappa)
heavy 1: not shown
heavy 2: not shown
light: B1 light
notes: also called He Ab K326_15Y
B25: GpH7-A5/GpH7-B3 variant A330_08L/GpL16-k0 (antibody, human IgG1, kappa)
heavy 1: not shown
heavy 2: not shown
light: B1 light
notes: also called He Ab A330_08L
B26: GpH7-A5/GpH7-B3 variant H268_20W/GpL16-k0 (antibody, human IgG1, kappa)
heavy 1: not shown
heavy 2: not shown
light: B1 light
notes: also called He Ab H268_20W
B27: GpH7-A5/GpH7-B3 variant A330_11K/GpL16-k0 (antibody, human IgG1, kappa)
heavy 1: not shown
heavy 2: not shown
light: B1 light
notes: also called He Ab A330_11K
B28: GpH7-A5/GpH7-B3 variant G236_20W/GpL16-k0 (antibody, human IgG1, kappa)
heavy 1: not shown
heavy 2: not shown
light: B1 light
notes: also called He Ab G236_20W
B29: GpH7-A5/GpH7-B3 variant E333_01G/GpL16-k0 (antibody, human IgG1, kappa)
heavy 1: not shown
heavy 2: not shown
light: B1 light
notes: also called He Ab E333_01G

Target: T1, FcγRIa (human, UniProt P12314 16-292)
T1 construct: extracellular domain; also called FcgRI; 1a
Test: SPR (Biacore); He Ab relative to HeCon Ab = 100
Protocol: Analysis of interaction between objective antibody and the FcγR was carried out using Biacore T100 (GE Healthcare). HBS-EP+ (GE Healthcare) was used as the running buffer, and the measurement temperature was set to 25° C. Chips produced by immobilizing the antigen peptide by the amine coupling method to a Series S Sencor Chip CM5 (GE Healthcare), or alternatively, chips produced by allowing preliminarily biotinylated antigen peptides to interact with and immobilize onto a Series S Sensor Chip SA (certified) (GE Healthcare) were used. Antibodies of interest were captured onto an antigen peptide-immobilized chip, and allowed to interact to each FcγR diluted with running buffer. To regenerate and repeatedly use the chip, the antibodies captured on the chip were washed off by reacting 10 mM glycine-HCl, pH 1.5.

T1 sequence (P12314 16-292): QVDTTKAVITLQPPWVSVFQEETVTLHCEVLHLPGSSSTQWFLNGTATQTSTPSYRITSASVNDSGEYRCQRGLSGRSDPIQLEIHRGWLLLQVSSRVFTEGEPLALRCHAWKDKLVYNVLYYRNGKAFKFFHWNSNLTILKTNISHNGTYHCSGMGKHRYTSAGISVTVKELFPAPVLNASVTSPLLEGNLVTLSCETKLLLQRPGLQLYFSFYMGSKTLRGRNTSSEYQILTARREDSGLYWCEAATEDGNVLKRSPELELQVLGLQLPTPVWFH

| He/Con_1a | Binder |
| --- | --- |
| 104 % of control | B1 |
| 100 % of control | B2 |
| 108 % of control | B3 |
| 112 % of control | B4 |
| 109 % of control | B5 |
| 105 % of control | B6 |
| 109 % of control | B7 |
| 107 % of control | B8 |
| 103 % of control | B9 |
| 105 % of control | B10 |
| 106 % of control | B11 |
| 106 % of control | B12 |
| 100 % of control | B13 |
| 106 % of control | B14 |
| 104 % of control | B15 |
| 107 % of control | B16 |
| 101 % of control | B17 |
| 103 % of control | B18 |
| 102 % of control | B19 |
| 101 % of control | B20 |
| 106 % of control | B21 |
| 109 % of control | B22 |
| 108 % of control | B23 |
| 106 % of control | B24 |
| 107 % of control | B25 |
| 107 % of control | B26 |
| 103 % of control | B27 |
| 105 % of control | B28 |
| 103 % of control | B29 |
